In US20200165324A1:

What was measured:
[1] = target: JR-CSF S365A
[2] = target: BG505 R476A
[3] = target: JR-CSF R476A
[4] = target: BG505 N363A
[5] = target: JR-CSF N276A
[6] = target: BG505 L179A
[7] = target: JR-CSF G471A
[8] = target: JR-CSF K207A
[9] = target: BG505 G471A
[10] = target: JR-CSF S199A
[11] = target: BG505 L369A
[12] = target: JR-CSF T198A
[13] = target: BG505 K121A
[14] = target: BG505 S364A
[15] = target: BG505 T373A
[16] = target: BG505 T372A
[17] = target: BG505 S365A
[18] = target: BG505 N332T
[19] = target: JR-CSF N362A
[20] = target: JR-CSF N283A
[21] = target: BG505 gp120 captured from lysed virions (HIV isolate BG505); experiment: ELISA on BG505 gp120 in PBS pH 7.4
[22] = target: JR-CSF G472A; experiment: ELISA, gp120 captured from lysed virions
[23] = target: JR-CSF E370A; experiment: ELISA, gp120 captured from lysed virions
[24] = target: JR-CSF S365A; experiment: ELISA, gp120 captured from lysed virions
[25] = target: JR-CSF G366A; experiment: ELISA, gp120 captured from lysed virions
[26] = target: BG505 R476A; experiment: ELISA, gp120 captured from lysed virions
[27] = target: BG505 M475A; experiment: ELISA, gp120 captured from lysed virions
[28] = target: JR-CSF R476A; experiment: ELISA, gp120 captured from lysed virions
[29] = target: BG505 N363A; experiment: ELISA, gp120 captured from lysed virions
[30] = target: BG505 G366A; experiment: ELISA, gp120 captured from lysed virions
[31] = target: JR-CSF N276A; experiment: ELISA, gp120 captured from lysed virions
[32] = target: BG505 L179A; experiment: ELISA, gp120 captured from lysed virions
[33] = target: BG505 V371A; experiment: ELISA, gp120 captured from lysed virions
[34] = target: JR-CSF G471A; experiment: ELISA, gp120 captured from lysed virions
[35] = target: JR-CSF K207A; experiment: ELISA, gp120 captured from lysed virions
[36] = target: BG505 G471A; experiment: ELISA, gp120 captured from lysed virions
[37] = target: JR-CSF T373A; experiment: ELISA, gp120 captured from lysed virions
[38] = target: JR-CSF N279A; experiment: ELISA, gp120 captured from lysed virions
[39] = target: JR-CSF S199A; experiment: ELISA, gp120 captured from lysed virions
[40] = target: JR-CSF N262A; experiment: ELISA, gp120 captured from lysed virions
[41] = target: BG505 E370A; experiment: ELISA, gp120 captured from lysed virions
[42] = target: BG505 L369A; experiment: ELISA, gp120 captured from lysed virions
[43] = target: BG505 gp120 captured from lysed virions (HIV isolate BG505); experiment: ELISA, gp120 captured from lysed virions
[44] = target: BG505 N197A; experiment: ELISA, gp120 captured from lysed virions
[45] = target: JR-CSF T198A; experiment: ELISA, gp120 captured from lysed virions
[46] = target: BG505 K121A; experiment: ELISA, gp120 captured from lysed virions
[47] = target: BG505 S364A; experiment: ELISA, gp120 captured from lysed virions
[48] = target: BG505 T373A; experiment: ELISA, gp120 captured from lysed virions
[49] = target: JR-CSF V371A; experiment: ELISA, gp120 captured from lysed virions
[50] = target: JR-CSF G473A; experiment: ELISA, gp120 captured from lysed virions
[51] = target: BG505 T372A; experiment: ELISA, gp120 captured from lysed virions
[52] = target: BG505 S365A; experiment: ELISA, gp120 captured from lysed virions
[53] = target: BG505 G367A; experiment: ELISA, gp120 captured from lysed virions
[54] = target: BG505 N283A; experiment: ELISA, gp120 captured from lysed virions
[55] = target: BG505 N332T; experiment: ELISA, gp120 captured from lysed virions
[56] = target: JR-CSF N362A; experiment: ELISA, gp120 captured from lysed virions
[57] = target: JR-CSF N283A; experiment: ELISA, gp120 captured from lysed virions

Substance: NC-Cow1 (antibody)
- IC50, pseudovirus neutralization [1]: 0.129 µg/mL
- IC50, pseudovirus neutralization [2]: 0.012 µg/mL
- IC50, pseudovirus neutralization [3]: > 50 µg/mL
- IC50, pseudovirus neutralization [4]: 0.013 µg/mL
- IC50, pseudovirus neutralization [5]: 1.76 µg/mL
- IC50, pseudovirus neutralization [6]: 0.018 µg/mL
- IC50, pseudovirus neutralization [7]: 50 µg/mL
- IC50, pseudovirus neutralization [8]: 1.8 µg/mL
- IC50, pseudovirus neutralization [9]: 0.013 µg/mL
- IC50, pseudovirus neutralization [10]: 0.404 µg/mL
- IC50, pseudovirus neutralization [11]: 0.015 µg/mL
- IC50, pseudovirus neutralization [12]: 2.98 µg/mL
- IC50, pseudovirus neutralization [13]: 0.029 µg/mL
- IC50, pseudovirus neutralization [14]: 0.014 µg/mL
- IC50, pseudovirus neutralization [15]: 0.016 µg/mL
- IC50, pseudovirus neutralization [16]: 0.028 µg/mL
- IC50, pseudovirus neutralization [17]: 0.015 µg/mL
- IC50, pseudovirus neutralization [18]: 0.018 µg/mL
- IC50, pseudovirus neutralization [19]: 0.496 µg/mL
- IC50, pseudovirus neutralization [20]: 6.94 µg/mL
- EC50 (read off the curve) [21]: 0.1 µg/mL
- EC50 [22]: 11.2 µg/mL
- EC50 [23]: 1.16 µg/mL
- EC50 [24]: 0.028 µg/mL
- EC50 [25]: 0.027 µg/mL
- EC50 [26]: 0.07 µg/mL
- EC50 [27]: 0.08 µg/mL
- EC50 [28]: 0.281 µg/mL
- EC50 [29]: 0.09 µg/mL
- EC50 [30]: 0.13 µg/mL
- EC50 [31]: 0.029 µg/mL
- EC50 [32]: 0.05 µg/mL
- EC50 [33]: 0.24 µg/mL
- EC50 [34]: 0.148 µg/mL
- EC50 [35]: 0.052 µg/mL
- EC50 [36]: 0.05 µg/mL
- EC50 [37]: 0.067 µg/mL
- EC50 [38]: 0.036 µg/mL
- EC50 [39]: 0.058 µg/mL
- EC50 [40]: 5.64 µg/mL
- EC50 [41]: 0.11 µg/mL
- EC50 [42]: 0.24 µg/mL
- EC50 [43]: 0.04 µg/mL
- EC50 [44]: 0.04 µg/mL
- EC50 [45]: 0.045 µg/mL
- EC50 [46]: 0.04 µg/mL
- EC50 [47]: 0.14 µg/mL
- EC50 [48]: 0.12 µg/mL
- EC50 [49]: 1.36 µg/mL
- EC50 [50]: 6.83 µg/mL
- EC50 [51]: 0.07 µg/mL
- EC50 [52]: 0.07 µg/mL
- EC50 [53]: 1.34 µg/mL
- EC50 [54]: 0.1 µg/mL
- EC50 [55]: 0.05 µg/mL
- EC50 [56]: 0.038 µg/mL
- EC50 [57]: 0.133 µg/mL
